Experiments:
[1] = target: T1, Nictide (RLGWWRFYTLRRARQGNTKQR)
T1 chain: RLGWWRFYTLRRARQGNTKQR

[2] = target: T2, LRRKtide peptide (RLGRDKYKTLRQIRQ)
T2 chain: RLGRDKYKTLRQIRQ

B1: GST-LRRK2[1326-2527, G2019S] (protein)
chain: LKKAVPYNRMKLMIVGNTGSGKTTLLQQLMKTKKSDLGMQSATVGIDVKDWPIQIRDKRKRDLVLNVWDFAGREEFYSTHPHFMTQRALYLAVYDLSKGQAEVDAMKPWLFNIKARASSSPVILVGTHLDVSDEKQRKACMSKITKELLNKRGFPAIRDYHFVNATEESDALAKLRKTIINESLNFKIRDQLVVGQLIPDCYVELEKIILSERKNVPIEFPVIDRKRLLQLVRENQLQLDENELPHAVHFLNESGVLLHFQDPALQLSDLYFVEPKWLCKIMAQILTVKVEGCPKHPKGIISRRDVEKFLSKKRKFPKNYMSQYFKLLEKFQIALPIGEEYLLVPSSLSDHRPVIELPHCENSEIIIRLYEMPYFPMGFWSRLINRLLEISPYMLSGRERALRPNRMYWRQGIYLNWSPEAYCLVGSEVLDNHPESFLKITVPSCRKGCILLGQVVDHIDSLMEEWFPGLLEIDICGEGETLLKKWALYSFNDGEEHQKILLDDLMKKAEEGDLLVNPDQPRLTIPISQIAPDLILADLPRNIMLNNDELEFEQAPEFLLGDGSFGSVYRAAYEGEEVAVKIFNKHTSLRLLRQELVVLCHLHHPSLISLLAAGIRPRMLVMELASKGSLDRLLQQDKASLTRTLQHRIALHVADGLRYLHSAMIIYRDLKPHNVLLFTLYPNAAIIAKIADYSIAQYCCRMGIKTSEGTPGFRAPEVARGNVIYNQQADVYSFGLLLYDILTTGGRIVEGLKFPNEFDELEIQGKLPDPVKEYGCAPWPMVEKLIKQCLKENPQERPTSAQVFDILNSAELVCLTRRILLPKNVIVECMVATHHNSRNASIWLGCGHTDRGQLSFLDLNTEGYTSEEVADSRILCLALVHLPVEKESWIVSGTQSGTLLVINTEDGKKRHTLEKMTDSVTCLYCNSFSKQSKQKNFLLVGTADGKLAIFEDKTVKLKGAAPLKILNIGNVSTPLMCLSESTNSTERNVMWGGCGTKIFSFSNDFTIQKLIETRTSQLFSYAAFSDSNIITVVVDTALYIAKQNSPVVEVWDKKTEKLCGLIDCVHFLREVMVKENKESKHKMSYSGRVKTLCLQKNTALWIGTGGGHILLLDLSTRRLIRVIYNFCNSVRVMMTAQLGSLKNVMLVLGYNRKNTEGTQKQKEIQSCLTVWDINLPHEVQNLEKHIEVRKELAEKMRRTSVE
Km (concentration dependent phosphorylation of Nictide, 5 min reactions) [1]: Calculated Km values are 6 µM for Nictide
Km (phosphorylation of LRRKtide, P81 paper 32P assay) [2]: a similar Km of approximately 200 µM
